Experiment [1] concerns the target CLDN18.2 of healthy mouse stomach (mouse) (UniProt P56857). Nature of the experiment: flow cytometry, live cells of healthy mouse stomach, mouse 2, antibody 4 µg/ml.
For experiment [2] the target is unchanged. Nature of the experiment: flow cytometry, live cells of healthy mouse stomach, average of two mice. A general note: In flow cytometry, cells or beads pass a laser one at a time.
For experiment [3] the target is unchanged. As to the kind of experiment: flow cytometry, live cells of healthy mouse stomach, mouse 1, antibody 4 µg/ml.

From patent publication US20240100180A1 come the findings set out here.

B1: cCl1-1 (antibody, V domains shown)
VH: QIQLVQSGPELKKPGESVKISCKASGYTFTDYAMHWVKQAPGKGLKWMGWINTYTGKPTYADDFKGRFVFSLEASASTANLQISNLKNEDTATYFCARAVFYGYTMDAWGQGTSVTVSS
VL: DIQMTQSPASLSASLGETISIACRASEDIYSNLAWYQQKSGKSPQLLIFSVKRLQDGVPSRFSGSGSGTQYSLKISGMQPEDEGDYFCLQGSNFPLTFGSGTKLEIK
On to B1, for which the % of positive healthy stomach cells is 0.3% in experiment [1], 0.35% in experiment [2] and 0.4% in experiment [3].
